Laboratory results taken from patent US20110189093A1, “PROSTATE SPECIFIC MEMBRANE ANTIGEN ANTIBODIES AND ANTIGEN BINDING FRAGMENTS” (PROSCAN RX PHARMA, priority 2008, published 2011).

How the values were obtained:
[1] = test system: 30 different normal tissues; experiment: Immunohistochemistry on tissue microarrays of normal tissues
Method: (§1) Tissue and tumor specificity of mAbs: to compare the tissue and tumor specificity of monoclonal antibodies of the present invention, tissue microarrays of 30 different normal tissues (Biochain) and 22 different tumor types (Dako) including prostate cancer was used in order to characterize their recognition specificity. The immunohistochemistry was performed on antigen retrieved, formalin fixed, paraffin embedded material. Anti-PSMA mAbs J591 (ATCC HB-12126) and 7E11 (ATCC HB-10494) were used as references. Formalin fixed paraffin embedded […] sections were subjected to antigen retrieval in basic antigen retrieval solution (BD Pharmingen pH 9.5) in a microwavable pressure cooker for 10 min, cooled and equilibrated to 0.01M phosphate buffered saline (PBS) pH 7.4. Staining was carried out at room temperature in a humidified chamber. Endogenous peroxidases were inactivated with a 1% solution of H2O2 for 20 min, blocked with 5% normal goat serum (NGS) for 30 min and incubated with primary monoclonal antibodies (mAbs) diluted in PBS; 2% NGS overnight. Antibody binding to tissue sections was detected by the sequential addition of the following reagents followed by washing in PBS: goat anti-mouse IgG (H+L) (ICN) secondary antibody diluted 1:100 in PBS; 2% NGS for 1 hr, a complex of a bi-specific mAb mouse anti-peroxidase and horse radish peroxidase for 1 hr, and 3,3-diaminobenzidene tetrahydrochloride (DAB) at 0.6 mg/ml in PBS; 2% NGS; 0.01% H2O2 as chromogen. The primary antibodies were purified mAbs used at concentrations optimized in dilution experiments. […] Mouse IgG mAb was used at a concentration of 0.2 μg/ml and served as a negative control for the primary antibodies. Tissue samples included organ confined and metastatic prostate cancer, HGPIN and normal prostate tissues drawn from radical prostatectomies, transurethral resections and autopsy material.

[2] = test system: 22 different tumor types; experiment: Immunohistochemistry on tissue microarrays of tumor types
Method: as §1

B1: PSf42.1: anti-PSMA monoclonal antibody; light chain variable SEQ ID NO:45, heavy chain variable SEQ ID NO:46 (antibody, V domains shown)
VH: EVQLEESGAEFVRPGAAVKLSCTVSGLNIKDSYLHWVKQRPEQGLEWIGGIDPANGDVEYDPKFQGKAAITADTSSNTAYLRLSSLTSEDTAVYYCAPFPYWGAGTTVTVS
VL: DILMTQSPLTLSVIIGQPASFSCKSSHSLLHRDGRTYLNWLLQRPGQSPQRLIYLVSKLDSGVPDRFTGSGSGTDFTLKISRVEAEDLGVYYCWQGTHFPRTFGGGTKLEIKRA
No. of positive cases/total no. of cases studied ([1]; Adipose): 0/2 | No. of positive cases/total no. of cases studied ([1]; Bladder): 0/2 | No. of positive cases/total no. of cases studied ([1]; Brain): 0/2 | No. of positive cases/total no. of cases studied ([1]; Breast): 0/2 | No. of positive cases/total no. of cases studied ([1]; Cerebullum): 0/2 | No. of positive cases/total no. of cases studied ([1]; Cervix): 0/2 | No. of positive cases/total no. of cases studied ([1]; Colon): 0/2 | No. of positive cases/total no. of cases studied ([1]; Diaphragm): 2/2 | No. of positive cases/total no. of cases studied ([1]; Duodenum): 0/2 | No. of positive cases/total no. of cases studied ([1]; Esophagus): 0/2 | No. of positive cases/total no. of cases studied ([1]; Gallbladder): 0/2 | No. of positive cases/total no. of cases studied ([1]; Heart): 0/2 | No. of positive cases/total no. of cases studied ([1]; Ileum): 0/2 | No. of positive cases/total no. of cases studied ([1]; Jejenum): 0/2 | No. of positive cases/total no. of cases studied ([1]; Kidney): 0/2 | No. of positive cases/total no. of cases studied ([1]; Liver): 0/2 | No. of positive cases/total no. of cases studied ([1]; Lung): 0/2 | No. of positive cases/total no. of cases studied ([1]; Ovary): 0/2 | No. of positive cases/total no. of cases studied ([1]; Pancreas): 0/2 | No. of positive cases/total no. of cases studied ([1]; Placenta): 0/4 | No. of positive cases/total no. of cases studied ([1]; Rectum): 0/2 | No. of positive cases/total no. of cases studied ([1]; Skeletal muscle): 2/2 | No. of positive cases/total no. of cases studied ([1]; Skin): 0/2 | No. of positive cases/total no. of cases studied ([1]; Spleen): 0/2 | No. of positive cases/total no. of cases studied ([1]; Stomach): 0/2 | No. of positive cases/total no. of cases studied ([1]; Testis): 0/2 | No. of positive cases/total no. of cases studied ([1]; Thymus): 0/2 | No. of positive cases/total no. of cases studied ([1]; Thyroid): 0/2 | No. of positive cases/total no. of cases studied ([1]; Tonsil): 0/2 | No. of positive cases/total no. of cases studied ([1]; Uterus): 0/2 | No. of positive cases/total no. of cases studied ([2]; Astrocytoma): 0/2 | No. of positive cases/total no. of cases studied ([2]; Breast carcinoma): 0/2 | No. of positive cases/total no. of cases studied ([2]; Carcinoid): 0/3 | No. of positive cases/total no. of cases studied ([2]; Colonic adenocarcinoma): 0/2 | No. of positive cases/total no. of cases studied ([2]; Epithelioid sarcoma): 0/1 | No. of positive cases/total no. of cases studied ([2]; Ewing's sarcoma): 0/1 | No. of positive cases/total no. of cases studied ([2]; Gastric carcinoma): 0/2 | No. of positive cases/total no. of cases studied ([2]; Hepatocellular carcinoma): 0/2 | No. of positive cases/total no. of cases studied ([2]; Hodgkin's lymphoma): 1/13 | No. of positive cases/total no. of cases studied ([2]; Leiomyoma): 0/2 | No. of positive cases/total no. of cases studied ([2]; Lung adeno carcinoma): 0/2 | No. of positive cases/total no. of cases studied ([2]; Lymphoma): 0/3 | No. of positive cases/total no. of cases studied ([2]; Malignant fibrous histiocytoma): 0/1 | No. of positive cases/total no. of cases studied ([2]; Melanoma): 0/3 | No. of positive cases/total no. of cases studied ([2]; Mesothelioma): 0/2 | No. of positive cases/total no. of cases studied ([2]; Ovarian carcinoma): 0/2 | No. of positive cases/total no. of cases studied ([2]; Pancreatic carcinoma): 0/2 | No. of positive cases/total no. of cases studied ([2]; Prostatic carcinoma): 1/1 | No. of positive cases/total no. of cases studied ([2]; Renal cell carcinoma): 0/2 | No. of positive cases/total no. of cases studied ([2]; Rhabdosarcoma): 0/2 | No. of positive cases/total no. of cases studied ([2]; Thyroid carcinoma): 0/2 | No. of positive cases/total no. of cases studied ([2]; Undifferentiated carcinoma): 0/4
